In series [1] the target is T1, aCBF5 protein (archaeal CBF5 RNA:Ψ-synthase), Pyrococcus abyssi, cleaved from GST (Pyrococcus abyssi, UniProt Q9V1A5 1-334).
T1 sequence (looked up): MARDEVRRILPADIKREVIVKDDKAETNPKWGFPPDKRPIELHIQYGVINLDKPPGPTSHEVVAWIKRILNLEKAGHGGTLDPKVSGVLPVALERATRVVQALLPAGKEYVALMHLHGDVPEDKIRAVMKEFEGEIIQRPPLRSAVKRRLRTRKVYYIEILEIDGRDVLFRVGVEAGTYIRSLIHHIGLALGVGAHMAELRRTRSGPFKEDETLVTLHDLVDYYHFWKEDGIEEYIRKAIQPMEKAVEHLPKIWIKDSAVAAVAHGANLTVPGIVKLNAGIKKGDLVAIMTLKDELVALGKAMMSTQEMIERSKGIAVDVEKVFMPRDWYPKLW
The series can be described thus: pull-down.

Series [2] concerns the target T1, aCBF5 protein (archaeal CBF5 …). The series can be described thus: native gel or EMSA.
In the next series the target is T2, aCBF5 (Pyrococcus abyssi GE5, UniProt Q9V1A5 1-334).
T2 sequence: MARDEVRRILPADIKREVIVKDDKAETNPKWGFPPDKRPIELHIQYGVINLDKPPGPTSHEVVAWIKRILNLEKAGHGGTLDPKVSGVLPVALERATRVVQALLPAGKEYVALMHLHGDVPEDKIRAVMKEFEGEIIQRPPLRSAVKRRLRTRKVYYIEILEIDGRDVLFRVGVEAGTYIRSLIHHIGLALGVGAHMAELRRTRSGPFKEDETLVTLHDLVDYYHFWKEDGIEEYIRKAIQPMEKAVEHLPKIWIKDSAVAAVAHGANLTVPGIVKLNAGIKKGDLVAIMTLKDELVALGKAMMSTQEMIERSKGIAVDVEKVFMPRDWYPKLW
The series can be described thus: EMSA. (In general: In EMSA bound probe runs differently from free probe, usually more slowly.)

For another series, the target named is T3, aCBF5;aNOP10 (Pyrococcus abyssi GE5;Pyrococcus abyssi …, UniProt Q9V1A5;Q9V0E3 1-334;1-60, |).
T3 sequence 1: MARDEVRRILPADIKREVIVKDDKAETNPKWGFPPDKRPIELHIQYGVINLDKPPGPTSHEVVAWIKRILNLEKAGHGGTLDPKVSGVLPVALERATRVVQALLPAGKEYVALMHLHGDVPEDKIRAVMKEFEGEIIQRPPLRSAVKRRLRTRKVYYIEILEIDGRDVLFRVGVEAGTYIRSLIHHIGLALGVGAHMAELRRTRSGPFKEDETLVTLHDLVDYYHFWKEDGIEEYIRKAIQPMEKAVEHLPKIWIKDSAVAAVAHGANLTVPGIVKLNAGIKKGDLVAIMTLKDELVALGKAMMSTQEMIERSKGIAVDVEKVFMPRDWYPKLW
T3 sequence 2: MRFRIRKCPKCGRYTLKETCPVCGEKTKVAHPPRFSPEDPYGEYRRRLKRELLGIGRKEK
The series can be described thus: EMSA.

B1: GST-aNOP10 fusion protein (natural protein, Pyrococcus abyssi, UniProt Q9V0E3 1-60, looked up)
chain: MRFRIRKCPKCGRYTLKETCPVCGEKTKVAHPPRFSPEDPYGEYRRRLKRELLGIGRKEK
As for B1, the binding result in series [1] is “binds”.

B2: aNOP10 protein, Pyrococcus abyssi, cleaved from GST (natural protein, UniProt Q9V0E3 1-60, looked up)
chain: MRFRIRKCPKCGRYTLKETCPVCGEKTKVAHPPRFSPEDPYGEYRRRLKRELLGIGRKEK
Turning to B2, the binding result in series [2] is “binds”.

B3: Pab91mtGA (structured_RNA)
RNA: GGGUAAUGCCCCUCCCCUCUCACACCUCCGGGAUCAGUCCCCGGAGGGCGGUCGGGGAGGGGACACCU
As to B3, the binding result with aCBF5 and in the series with aCBF5;aNOP10 was “binds” in each case.

Source of the values: PMC1142404 (Nucleic Acids Research, 2005).
